Test results: PMC11097083 (Molecular & Cellular Proteomics : MCP, 2024)
Where a chain is given by its changes, count along the chain named. In names and notes the source's numbering stands. Each block holds one molecule with its values, some of them ahead of it.

How the values were obtained:
[1] = target: galectin-4 C-terminal carbohydrate recognition domain (Gal-4C) (human); assay: AUC
[2] = target: galectin-4 C-terminal carbohydrate recognition domain (Gal-4C) (human); assay: cross-linking
cross-linking = target: the molecule itself; assay: cross-linking

stoichiometry N [1]: 2
stoichiometry N [2]: 2
Molecule: galectin-4 C-terminal carbohydrate recognition domain (Gal-4C) (domain or fragment)

B1: galectin-4 (Gal-4), full-length (natural protein, human, UniProt P56470 1-323, looked up)
chain: MAYVPAPGYQPTYNPTLPYYQPIPGGLNVGMSVYIQGVASEHMKRFFVNFVVGQDPGSDVAFHFNPRFDGWDKVVFNTLQGGKWGSEERKRSMPFKKGAAFELVFIVLAEHYKVVVNGNPFYEYGHRLPLQMVTHLQVDGDLQLQSINFIGGQPLRPQGPPMMPPYPGPGHCHQQLNSLPTMEGPPTFNPPVPYFGRLQGGLTARRTIIIKGYVPPTGKSFAINFKVGSSGDIALHINPRMGNGTVVRNSLLNGSWGSEEKKITHNPFGPGQFFDLSIRCGLDRFKVYANGQHLFDFAHRLSAFQRVDTLEIQGDVTLSYVQI
stoichiometry N (cross-linking): 2

B2: Gal-4CM (R240H), C-terminal domain mutant of full-length Gal-4 (natural protein, human, UniProt P56470 1-323, looked up)
chain: B1 chain with R240H
stoichiometry N (cross-linking): 2

B3: Gal-4NM (R67H), N-terminal domain mutant of full-length Gal-4 (natural protein, human, UniProt P56470 1-323, looked up)
chain: B1 chain with R67H
stoichiometry N (cross-linking): 2
